Key:
[1] = biological target: MBPeng-KFLFAK (Escherichia coli | not stated); test: SEC; central fractions of the monomeric or dimeric peak incubated for one week at 37 °C, then analytical SEC
[2] = biological target: MBPeng-KFL_(PYK2) (Escherichia coli | not stated) (UniProt Q14289); test: SEC; large-scale Superdex 200 after the amylose column; protein applied at 15 mg/ml; 20 mM HEPES pH 7.5, 150 mM NaCl, 2 mM maltose, 2 mM DTT
[3] = biological target: MBPeng-KFL_(PYK2) (Escherichia coli | not stated) (UniProt Q14289); test: crystal structure; dimeric SEC fractions crystallised by hanging drop at 23 °C, 15 mg/ml, pH 10.5; space group P1
[4] = biological target: MBPeng-KFL_(PYK2) (Escherichia coli | not stated) (UniProt Q14289); test: SEC-SAXS; SWING beamline; 20 mM HEPES, 150 mM NaCl, 2 mM DTT, 2 mM maltose; dimer and monomer peaks fitted with models from the crystal structures

Substance | percent of the dimeric fraction converted into monomers after one week at 37 °C [1] [%] | percent of the monomeric fraction converted into dimers after one week at 37 °C [1] [%] | stoichiometry N [2] | stoichiometry N [3] | stoichiometry N [4]
MBPeng-KFLFAK (from UniProt Q05397 805-832) | 20 | 20 | – | – | –
MBPeng-KFL_(PYK2) (from UniProt Q14289 790-839) | – | – | 2 | 2 | 2

— PMC6938514
